According to article PMC6337079, “Exploring Novel Functions of the Small GTPase Ypt1p under Heat-Shock by Characterizing a Temperature-Sensitive Mutant Yeast Strain, ypt1-G80D” (International Journal of Molecular Sciences, 2019):

B1: Ypt1p^G80D (purified bacterially expressed recombinant) (natural protein)
chain: not shown
notes: Ypt1p of Saccharomyces cerevisiae with G80D, from the plasmid pGEX-ypt1^G80D (pGEX-2T, BamHI/HindIII insert); source: E. coli BL21(DE3)pLysS, purified (GSH-agarose, thrombin cleavage, TSK heparin-5PW HPLC, ATP-agarose)
B2: Ypt1p (purified bacterially expressed recombinant) (natural protein)
chain: not shown
notes: Ypt1p, Rab family small GTPase of Saccharomyces cerevisiae, from the plasmid pGEX-YPT1; monomer printed as 23.5 kDa; also called native Ypt1p; wild-type Ypt1p; source: E. coli BL21(DE3)pLysS, purified (GSH-agarose, thrombin cleavage, TSK heparin-5PW HPLC, ATP-agarose)

Molecular target: the molecule itself
Assay: native gel or EMSA; purified protein (3 μg/μL) incubated at 25 °C or 45 °C for 30 min, native-PAGE, silver-stained; self-association

Protein	binding result
B1	binds
B2	binds
